Laboratory results as given in patent publication US20260069690A1.

Target: S100A11 Q22R (mutant 25mer, peptide 60 / P60; residues not given) peptide on HLA-DR (human)
Experiment: MSGV1 TCR-transduced healthy-donor peripheral blood T cells with B cells pulsed with the Q22R peptide. Secretion was inhibited by anti-HLA-DR/-DP/-DQ but not by anti-HLA-ABC. TNFa and Granzyme B were also released. The TIL clone released IFNg, TNFa and Granzyme B, which anti-HLA-DR blocked but anti-HLA-DP and anti-HLA-DQ did not.; full-length, on cells
Conditions: chains Valpha:Vbeta

B1: S100A11^Q22R-specific TCR (protein)
chain 1: SQKIEQNSEALNIQEGKTATLTCNYTNYSPAYLQWYRQDPGRGPVFLLLIRENEKEKRKERLKVTFDTTLKQSLFHITASQPADSATYLCALDFTGGGNKLTFGTGTQLKVEL
chain 2: NAGVMQNPRHLVRRRGQEARLRCSPMKGHSHVYWYRQLPEEGLKFMVYLQKENIIDESGMPKERFSAEFPKEGPSILRIQQVVRGDSAAYFCASSPSTGGIGDTQYFGPGTRLTVL
An IFNg released greater than 15000 pg/mL was found for B1 in this work.
